Measured values: publication PMC11425217, “CCDC68 Maintains Mitotic Checkpoint Activation by Promoting CDC20 Integration into the MCC” (Advanced Science, 2024)
One block for each binder: values may come before it.

What was measured:
GST‐CDC20 [1] = biological target: T1, GST‐CDC20 (human (cDNA from HEK293T cells), UniProt Q12834 1-499); experiment: pull-down; purified MBP, MBP‐CCDC68‐FL or MBP‐CCDC68‐Δ280–300 incubated with GST‐CDC20; Coomassie staining and immunoblot; conditions: both partners purified
T1 construct: CDC20, full-length cDNA amplified from HEK293T cell cDNA; The legend names no limits; source: E. coli BL21, purified (Glutathione Sepharose 4B)

GST‐CDC20 [2] = biological target: T1, GST‐CDC20; experiment: pull-down; purified CCDC68 (50 nM) incubated with GST or the GST fusion protein; Coomassie staining and immunoblot; conditions: both partners purified

T1 sequence (Q12834 whole entry): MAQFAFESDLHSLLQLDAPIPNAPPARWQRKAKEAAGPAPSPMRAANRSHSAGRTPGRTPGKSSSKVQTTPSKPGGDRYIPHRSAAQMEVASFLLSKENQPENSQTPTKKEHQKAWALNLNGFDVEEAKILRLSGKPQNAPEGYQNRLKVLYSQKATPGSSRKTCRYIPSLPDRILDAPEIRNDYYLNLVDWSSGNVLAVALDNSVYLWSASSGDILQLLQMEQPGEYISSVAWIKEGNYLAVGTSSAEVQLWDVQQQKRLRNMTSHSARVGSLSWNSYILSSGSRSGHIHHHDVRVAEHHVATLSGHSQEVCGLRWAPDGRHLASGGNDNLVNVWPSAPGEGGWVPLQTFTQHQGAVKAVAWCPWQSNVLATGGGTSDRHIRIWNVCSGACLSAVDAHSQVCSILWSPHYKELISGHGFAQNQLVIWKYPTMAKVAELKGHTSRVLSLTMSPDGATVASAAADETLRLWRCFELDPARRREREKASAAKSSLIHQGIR

binding result (GST‐CDC20 [1]): binds
B1: MBP‐CCDC68‐Full length (FL) (natural protein, human (cDNA from HEK293T cells), UniProt Q9H2F9 1-335, looked up)
chain: MTTVTVTTEIPPRDKMEDNSALYESTSAHIIEETEYVKKIRTTLQKIRTQMFKDEIRHDSTNHKLDAKHCGNLQQGSDSEMDPSCCSLDLLMKKIKGKDLQLLEMNKENEVLKIKLQASREAGAAALRNVAQRLFENYQTQSEEVRKKQEDSKQLLQVNKLEKEQKLKQHVENLNQVAEKLEEKHSQITELENLVQRMEKEKRTLLERKLSLENKLLQLKSSATYGKSCQDLQREISILQEQISHLQFVIHSQHQNLRSVIQEMEGLKNNLKEQDKRIENLREKVNILEAQNKELKTQVALSSETPRTKVSKAVSTSELKTEGVSPYLMLIRLRK
notes: CCDC68, full-length cDNA amplified from HEK293T cell cDNA; Vector pCold‐MBP; also called MBP‐CCDC68‐FL; source: E. coli BL21, purified (Amylose Beads, eluted with maltose)

binding result (GST‐CDC20 [2]): binds
B2: Purified CCDC68 (recombinant, from bacteria) (natural protein, human (cDNA from HEK293T cells), UniProt Q9H2F9 1-335, looked up)
chain: B1 chain
notes: CCDC68, full-length cDNA amplified from HEK293T cell cDNA; The legend names no limits; also called recombinant CCDC68; source: E. coli BL21, purified (eluted by cleaving the tag with PreScission protease)
